To fix the notation:
B1: Azoarcus group I ribozyme (parent)
chain: GUGCCUUGCGCCGGGAAACCACGCAAGGGAUGGUGUCAAAUUCGGCGAAACCUAAGCGCCCGCCCGGGCGUAUGGCAACGCCGAGCCAAGCUUCGGCGCCUGCGCCGAUGAAGGUGUAGAGACUAGACGGCACCCACCUAAGGCAAACGCUAUGGUGAAGGCAUAGUCCAGGGAGUGGCGAAAGUCACACAAACCGG

The series covers variants of B1. Description: reverse-splicing fitness (ratio to wild type); higher = more active; in vitro selection; Mg2+ level not given. Put shortly:
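An in vitro group I ribozyme library with randomized positions was T7-transcribed and gel-purified. In triplicate, 10 pmol RNA in EPPS pH 7.5 was reacted with 50 pmoles of a 30-nt RNA substrate for 1 h at 37 °C across several added MgCl2 levels (1–48 mM), then stopped with EDTA. Products were reverse transcribed from a substrate-complementary primer, PCR-amplified and sequenced (HiSeq 4000). Fitness is a variant's read proportion after selection over that before, normalised to wild type.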
For the variant GUGCCUUGCGCCGGGAAACCACGCAAGGGAUGGUGUCAAAUUCGGCGAAACCUAAGCGCCCGCCCGGGCGUAUGGCAACGCUGAGCCAAGCUUCGGCGCCUGCGCCGAUGCAGGUGUAGCGACUAGACGGCACCCACCUAAGGCGAACGAUAUGGUGAAGGCAUAGUCCAGGGAGUGGCGAAAGUCACACAAACCGG [C82U A111C A120C A145G C150A], the reverse-splicing fitness came to 0.01.
The value for GUGCCUUGCGCCGGGAAACCACGCAAGGGAUGGUGUCAAAUUCGGCGAAACCUAAGCGCCCGCCCGGGCGUAUGGCAACGCUGAGCCAAGCUUCGGCGCCUGCGCCGAUGCAGGUGUAGCGACUAGACGGCACCCACCUAAGGCGAACGGUAUGGUGAAGGCAUAGUCCAGGGAGUGGCGAAAGUCACACAAACCGG [C82U A111C A120C A145G C150G] was 0.0102; that for GUGCCUUGCGCCGGGAAACCACGCAAGGGAUGGUGUCAAAUUCGGCGAAACCUAAGCGCCCGCCCGGGCGUAUGGCAACGCUGAGCCAAGCUUCGGCGCCUGCGCCGAUGCAGGUGUAGCGACUAGACGGCACCCACCUAAGGCGAACGAUAUGGUGAAGGCAUAGUCUAGGGAGUGGCGAAAGUCACACAAACCGG [C82U A111C A120C A145G C150A C169U] was 0.0103; that for GUGCCUUGCGCCGGGAAACCACGCAAGGGAUGGUGUCAAAUUCGGCGAAACCUAAGCGCCCGCCCGGGCGUAUGGCAACGCUGAGCCAAGCUUCGGCGCCUGCGCCGAUGCAGGUGUAGCGACUAGACGGCACCCACCUAAGGCGAACGAUAUGGUGAAGGCAUAGUCGAGGGAGUGGCGAAAGUCACACAAACCGG [C82U A111C A120C A145G C150A C169G] was 0.00891.
Take GUGCCUUGCGCCGGGAAACCACGCAAGGGAUGGUGUCAAAUUCGGCGAAACCUAAGCGCCCGCCCGGGCGUAUGGCAACGCUGAGCCAAGCUUCGGCGCCUGCGCCGAUGCAGGUGUAGCGACUAGACGGCACCCACCUAAGGCGAACGAUAUGGUGAAGGCAUAGUCAAGGGAGUGGCGAAAGUCACACAAACCGG [C82U A111C A120C A145G C150A C169A]: the reverse-splicing fitness is 0.00917.
In the case of GUGCCUUGCGCCGGGAAACCACGCAAGGGAUGGUGUCAAAUUCGGCGAAACCUAAGCGCCCGCCCGGGCGUAUGGCAACGCUGAGCCAAGCUUCGGCGCCUGCGCCGAUGCAGGUGUAGCGACUAGACGGCACCCACCUAAGGCGAACGGUAUGGUGAAGGCAUAGUCAAGGGAGUGGCGAAAGUCACACAAACCGG [C82U A111C A120C A145G C150G C169A], the reverse-splicing fitness was determined as 0.0079.
As to GUGCCUUGCGCCGGGAAACCACGCAAGGGAUGGUGUCAAAUUCGGCGAAACCUAAGCGCCCGCCCGGGCGUAUGGCAACGCUGAGCCAAGCUUCGGCGCCUGCGCCGAUGCAGGUGUAGCGACUAGACGGCACCCACCUAAGGCCAACGCUAUGGUGAAGGCAUAGUCGAGGGAGGGGCGAAAGUCACACAAACCGG [C82U A111C A120C A145C C169G U176G], the reverse-splicing fitness is 0.00555.
The value for GUGCCUUGCGCCGGGAAACCACGCAAGGGAUGGUGUCAAAUUCGGCGAAACCUAAGCGCCCGCCCGGGCGUAUGGCAACGCUGAGCCAAGCUUCGGCGCCUGCGCCGAUGCAGGUGUAGCGACUAGACGGCACCCACCUAAGGCCAACGCUAUGGUGAAGGCAUAGUCGAGGGAGCGGCGAAAGUCACACAAACCGG [C82U A111C A120C A145C C169G U176C] was 0.015; that for GUGCCUUGCGCCGGGAAACCACGCAAGGGAUGGUGUCAAAUUCGGCGAAACCUAAGCGCCCGCCCGGGCGUAUGGCAACGCUGAGCCAAGCUUCGGCGCCUGCGCCGAUGCAGGUGUAGCGACUAGACGGCACCCACCUAAGGCGAACGAUAUGGUGAAGGCAUAGUCGAGGGAGCGGCGAAAGUCACACAAACCGG [C82U A111C A120C A145G C150A C169G U176C] was 0.0245.
The value for GUGCCUUGCGCCGGGAAACCACGCAAGGGAUGGUGUCAAAUUCGGCGAAACCUAAGCGCCCGCCCGGGCGUAUGGCAACGCUGAGCCAAGCUUCGGCGCCUGCGCCGAUGCAGGUGUAGCGACUAGACGGCACCCACCUAAGGCGAACGAUAUGGUGAAGGCAUAGUCGAGGGAGAGGCGAAAGUCACACAAACCGG [C82U A111C A120C A145G C150A C169G U176A] was 0.015; that for GUGCCUUGCGCCGGGAAACCACGCAAGGGAUGGUGUCAAAUUCGGCGAAACCUAAGCGCCCGCCCGGGCGUAUGGCAACGCUGAGCCAAGCUUCGGCGCCUGCGCCGAUGCAGGUGUAGCGACUAGACGGCACCCACCUAAGGCGAACGAUAUGGUGAAGGCAUAGUCGAGGGAGGGGCGAAAGUCACACAAACCGG [C82U A111C A120C A145G C150A C169G U176G] was 0.00635.
Then GUGCCUUGCGCCGGGAAACCACGCAAGGGAUGGUGUCAAAUUCGGCGAAACCUAAGCGCCCGCCCGGGCGUAUGGCAACGCUGAGCCAAGCUUCGGCGCCUGCGCCGAUGCAGGUGUAGCGACUAGACGGCACCCACCUAAGGCGAACGCUAUGGUGAAGGCAUAGUCCAGGGAGUGGCGAAAGUCACACAAACCGG [C82U A111C A120C A145G], with 0.0265.
With GUGCCUUGCGCCGGGAAACCACGCAAGGGAUGGUGUCAAAUUCGGCGAAACCUAAGCGCCCGCCCGGGCGUAUGGCAACGCUGAGCCAAGCUUCGGCGCCUGCGCCGAUGCAGGUGUAGCGACUAGACGGCACCCACCUAAGGCGAACGAUAUGGUGAAGGCAUAGUCUAGGGAGGGGCGAAAGUCACACAAACCGG [C82U A111C A120C A145G C150A C169U U176G], the reverse-splicing fitness came to 0.00639.
Take GUGCCUUGCGCCGGGAAACCACGCAAGGGAUGGUGUCAAAUUCGGCGAAACCUAAGCGCCCGCCCGGGCGUAUGGCAACGCUGAGCCAAGCUUCGGCGCCUGCGCCGAUGCAGGUGUAGCGACUAGACGGCACCCACCUAAGGCGAACGAUAUGGUGAAGGCAUAGUCUAGGGAGCGGCGAAAGUCACACAAACCGG [C82U A111C A120C A145G C150A C169U U176C]: the reverse-splicing fitness is 0.0172.
Then GUGCCUUGCGCCGGGAAACCACGCAAGGGAUGGUGUCAAAUUCGGCGAAACCUAAGCGCCCGCCCGGGCGUAUGGCAACGCUGAGCCAAGCUUCGGCGCCUGCGCCGAUGCAGGUGUAGCGACUAGACGGCACCCACCUAAGGCGAACGAUAUGGUGAAGGCAUAGUCUAGGGAGAGGCGAAAGUCACACAAACCGG [C82U A111C A120C A145G C150A C169U U176A], with 0.0176.
